In assay [1] the target is MIWI (PIWIL1), mouse, 3×Flag–SNAP-tagged recombinant, loaded with a synthetic piRNA (MIWI piRISC) (mouse) (UniProt Q9JMB7).
Assay [2] deals with T1, MIWI (PIWIL1), mouse, 3×Flag–SNAP-tagged recombinant, loaded with a synthetic piRNA (MIWI piRISC) (mouse, UniProt Q9JMB7 1-862, methylarginines (positions in Extended Data Fig. 1h)).
T1 construct: Mouse MIWI (PIWIL1); cDNA from the Mammalian Gene Collection; not shown: 3×Flag, N-terminal, kept; SNAP, N-terminal, kept
T1 sequence (looked up): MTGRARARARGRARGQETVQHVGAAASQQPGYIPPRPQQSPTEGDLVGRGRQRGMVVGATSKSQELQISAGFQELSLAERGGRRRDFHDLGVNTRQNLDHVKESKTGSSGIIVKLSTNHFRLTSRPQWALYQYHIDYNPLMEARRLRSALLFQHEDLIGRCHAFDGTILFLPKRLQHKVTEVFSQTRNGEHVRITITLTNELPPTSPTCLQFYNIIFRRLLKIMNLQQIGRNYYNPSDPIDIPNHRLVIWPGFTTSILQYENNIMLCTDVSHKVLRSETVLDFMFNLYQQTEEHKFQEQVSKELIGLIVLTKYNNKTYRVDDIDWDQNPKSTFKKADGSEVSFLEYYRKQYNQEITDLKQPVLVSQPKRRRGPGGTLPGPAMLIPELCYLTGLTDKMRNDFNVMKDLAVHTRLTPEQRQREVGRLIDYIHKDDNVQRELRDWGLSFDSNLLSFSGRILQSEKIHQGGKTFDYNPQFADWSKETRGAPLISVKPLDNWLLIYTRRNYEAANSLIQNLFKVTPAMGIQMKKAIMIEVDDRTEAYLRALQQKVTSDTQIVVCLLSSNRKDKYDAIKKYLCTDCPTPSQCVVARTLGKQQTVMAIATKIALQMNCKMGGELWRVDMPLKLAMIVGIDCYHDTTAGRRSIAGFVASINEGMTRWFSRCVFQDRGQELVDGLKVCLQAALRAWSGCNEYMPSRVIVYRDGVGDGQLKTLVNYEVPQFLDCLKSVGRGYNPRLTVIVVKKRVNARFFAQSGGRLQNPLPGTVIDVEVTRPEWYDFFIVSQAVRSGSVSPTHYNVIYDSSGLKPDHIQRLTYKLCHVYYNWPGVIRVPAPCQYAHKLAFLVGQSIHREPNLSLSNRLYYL
As to the kind of experiment: enzyme kinetics titration (pre-steady-state target-cleavage rate k_burst against GTSF1 concentration); k_burst of MIWI piRISC measured at 1–5,000 nM GTSF1 and fit to kburst=kpot[GTSF1]/(Kd+[GTSF1]); Kd is for the MIWI piRISC–target RNA ternary complex. To be noted: both partners purified.

Regarding “BmGtsf1-like, Bombyx mori, V5SBP-tagged purified recombinant (natural protein)”, in assay [1], the amount of target RNA cleaved by MIWI piRISC with 100 nM recombinant GTSF protein (fold increase) stood at 2.6 fold.

B1: Gametocyte specific factor 1 (GTSF1), mouse, wild type, purified recombinant (natural protein, UniProt Q9DAN6 1-167, looked up)
chain: MEDTYIDSLDPEKLLQCPYDKNHQIRACRFPYHLIKCRKNHPDVANKLATCPFNARHQVPRAEISHHISSCDDKSCIEQDVVNQTRNLGQETLAESTWQCPPCDEDWDKDLWEQTSTPFVWGTASFCGNNSPANNIVMEHKSNLASGMRVPKSLPYVLPWKNNGNAQ
notes: Mouse GTSF1, tandem CHHC-type zinc-finger protein, printed mass 19,083 Da; cDNA synthesized at Twist Biosciences; Grown with 1 uM ZnSO4 (zinc-finger protein); also called wild-type GTSF1; MmGtsf1; source: E. coli Rosetta-Gami 2 (pCold-GST), purified (glutathione Sepharose, HRV3C cleavage, HiTrap Q)
Turning to B1, in assay [2], the dissociation constant Kd came to 8 nM.

B2: GTSF1(W98A/W107A/W112A), mouse, PIWI-interacting mutant, purified recombinant (natural protein, UniProt Q9DAN6 1-167, looked up)
chain: MEDTYIDSLDPEKLLQCPYDKNHQIRACRFPYHLIKCRKNHPDVANKLATCPFNARHQVPRAEISHHISSCDDKSCIEQDVVNQTRNLGQETLAESTAQCPPCDEDADKDLAEQTSTPFVWGTASFCGNNSPANNIVMEHKSNLASGMRVPKSLPYVLPWKNNGNAQ
notes: Mouse GTSF1 with W98A, W107A and W112A; expression vector synthesized at Twist Biosciences; also called PIWI-int mutant GTSF1; source: E. coli Rosetta-Gami 2 (pCold-GST), purified (glutathione Sepharose, HRV3C cleavage, HiTrap Q)
B2: the dissociation constant Kd in assay [2] was 500 nM.

Broadly, the Kd is the free concentration of one partner at which half of the binding sites on the other are occupied at equilibrium, for simple one-to-one binding.

Source of the values: paper PMC9385479, “GTSF1 accelerates target RNA cleavage by PIWI-clade Argonaute proteins” (Nature, 2022).
